As usually defined, the stoichiometry N is a count of units in the complex or per binding partner.

What all share (assay): native gel or EMSA
For orientation: Mobility shift assays separate free from complexed probe on a gel.

Test [1] has as its target B41 SOSIP.v4.1-His trimer (HIV-1 (B41)).
Test [2] addresses BG505 SOSIP.664 trimer (HIV-1 (BG505)) (UniProt Q2N0S6).
In test [3] the target is BG505 SOSIP.664-His trimer (HIV-1 (BG505)) (UniProt Q2N0S6).

Turning to B41 SOSIP.v4.1-His trimer (complex), in test [1], the stoichiometry N turned out to be 3. “BG505 SOSIP.664 trimer (from UniProt Q2N0S6 1-860; Q2N0S6 1-860) (complex)” came in with a stoichiometry N in test [2] of 3. With “BG505 SOSIP.664-His trimer (from UniProt Q2N0S6 1-860; Q2N0S6 1-860) (complex)”, the stoichiometry N in test [3] was determined as 3.

These data come from paper PMC6453562.
